Measured values reported in publication PMC5158082 (PLoS Pathogens, 2016).

Assays:
SpaR^STREP = target: T1, SpaR^STREP (Salmonella enterica serovar Typhimurium, UniProt P40701 1-263); test: native MS; conditions: both partners purified
T1 construct: also called SpaR^STREP of the SpaPR^STREP complex
T1 sequence: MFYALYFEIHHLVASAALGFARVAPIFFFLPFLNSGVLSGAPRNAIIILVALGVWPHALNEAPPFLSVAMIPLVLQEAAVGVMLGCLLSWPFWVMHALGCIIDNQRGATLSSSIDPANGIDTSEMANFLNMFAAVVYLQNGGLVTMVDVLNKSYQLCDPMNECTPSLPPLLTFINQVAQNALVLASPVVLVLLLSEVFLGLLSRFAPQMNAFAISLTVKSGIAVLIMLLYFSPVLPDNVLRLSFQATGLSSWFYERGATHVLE

native MS = target: the molecule itself; test: native MS

B1: SpaP (untagged, co-expressed in E. coli) (natural protein)
chain: MGNDISLIALLAFSTLLPFIIASGTCFVKFSIVFVMVRNALGLQQIPSNMTLNGVALLLSMFVMWPIMHDAYVYFEDEDVTFNDISSLSKHVDEGLDGYRDYLIKYSDRELVQFFENAQLKRQYGEETETVKRDKDEIEKPSIFALLPAYALSEIKSAFKIGFYLYLPFVVVDLVVSSVLLALGMMMMSPVTISTPIKLVLFVALDGWTLLSKGLILQYMDIAT
notes: also called SpaP of the SpaPR complex; SpaP5R1
stoichiometry N (SpaR^STREP): 5 SpaP per SpaR^STREP | stoichiometry N (native MS): 5
